Source: patent US20140220070A1, “USE OF PLANT CELL MEMBRANE TREATMENT OF OBESITY” (Thylabisco AB, priority 2005, published 2014)

Biological target: T1, pancreatic lipase (Homo sapiens, UniProt P16233)
T1 sequence (P16233 17-465): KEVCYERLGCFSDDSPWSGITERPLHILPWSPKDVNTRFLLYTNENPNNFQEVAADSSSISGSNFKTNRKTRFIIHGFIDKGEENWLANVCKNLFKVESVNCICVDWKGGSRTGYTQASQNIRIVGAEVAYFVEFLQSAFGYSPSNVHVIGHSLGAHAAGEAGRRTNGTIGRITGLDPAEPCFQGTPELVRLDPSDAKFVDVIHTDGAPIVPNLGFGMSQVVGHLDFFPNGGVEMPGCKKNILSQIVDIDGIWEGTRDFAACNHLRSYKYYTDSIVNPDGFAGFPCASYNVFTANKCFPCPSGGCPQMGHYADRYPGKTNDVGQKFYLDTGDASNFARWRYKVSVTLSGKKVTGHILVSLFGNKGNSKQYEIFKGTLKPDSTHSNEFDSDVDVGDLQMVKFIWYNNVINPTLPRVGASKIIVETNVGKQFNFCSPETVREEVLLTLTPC
Assay: Measurement of the lipase activity (pH stat, tributyrin)
Format: biochemical
Conditions: increasing amounts of membranes/proteins, lipase + colipase, pH 7.0, curves only in FIG. 1-3
Experimental: The lipase activity was measured according to the following (Borgstrom B. and Erlanson C. European J. of Biochemistry 37: 60-68, 1973): 15 ml of an aqueous solution containing 1 mM Tris buffer pH 7.0, 1 mM calcium chloride, 150 mM sodium chloride, 4 mM sodiumtaurodeoxycholate, 0.5 μg lipase, 1 μg of colipase.
To this mixture 0.5 ml of tributyrin is added together with increasing amounts of membranes and the released fatty acids measured using a pH stat.

## transhydrogenase: isolated membrane protein, transhydrogenase prepared from E. coli
  inhibition of pancreatic lipase: inhibition
